Measurements taken from US6361968, “Extension of a protein-protein interaction surface to inactive the function of a cellular protein” (The United States of America as represented by the …).

Columns and labels:
[1] = target: T1, VBP-C/EBP chimera (VBP basic region, C/EBP leucine zipper) (Gallus gallus / Rattus norvegicus?); test: competition; calculated from displacement by 0-3heptad-F dominant negatives, Trp fluorescence, 25 C, 150 mM KCl, 12.5 mM phosphate pH 7.4; conditions: chain copies: 2 (stated)
T1 chain: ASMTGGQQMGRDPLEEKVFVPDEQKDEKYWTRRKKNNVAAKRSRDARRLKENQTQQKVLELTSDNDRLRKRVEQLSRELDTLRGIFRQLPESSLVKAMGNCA
Procedure: FIG. 14A: 3heptad-F inhibits C/EBP DNA binding. […] Protein was diluted four-fold in the successive lanes. […] FIG. 14B: Displacement of VBP-C/EBP from DNA by five dominant negatives (DNs) assayed by fluorescence. Fluorescence of a single tryptophan located in the basic region of VBP-C/EBP increased upon DNA binding (minutes 5–10). The addition of 1.1 molar equivalents of the F zipper or of the four different acidic extension caused a decrease in fluorescence. After 20 minutes, 10 more molar equivalents were added, causing an additional displacement of VBP-C/EBP from the DNA. 4heptad-F, shown in bold, causes the most dramatic displacement of VBP:C/EBP. […] This is not observed for the other four mixtures which return to the VBP-C/EBP-only baseline.

[2] = target: C/EBPalpha (UniProt P05554 P05554:1-358); test: cell_activity; CAT transactivation in HepG2; completely inhibited by 3heptad-F; conditions: tags: N-terminal FLAG; chain copies: 2 (inferred)
Excerpt: Human hepatoma cells (HepG2) were transiently transfected with three plasmids, a chloramphenicol acetyl transferase (CAT) expression plasmid driven by a single C/EBP cis element, the C/EBP transactivator, and different DNs. The histogram presents the extent of transactivation observed in the presence of different combinations of transactivator and dominant-negatives. In the absence of any DN, expressed C/EBP transactivated a single C/EBP site approximately 10 fold. […] This protein was able to transactivate a C/EBP containing promoter and was not inhibited by 3heptad-F.
In these experiments, 10 μg of reporter plasmid, 0.3 μg of transactivator, and 5 μg of DN were added to each transient transfection. […] Sheared salmon sperm DNA was added to bring the DNA concentrations to 20 μg. Calcium phosphate transfections were performed following the manufacturer's instructions (Gibco).

B1: 28 bp C/EBP site probe (dsDNA)
DNA 1: GTCAGTCAGATTGCGCAATATCGGTCAG
DNA 2: CTGACCGATATTGCGCAATCTGACTGAC
[1]
  Kd: 0.1 nM

B2: C/EBP consensus site in CAT reporter promoter (dsDNA)
DNA 1: ATTGCGCAAT
DNA 2: ATTGCGCAAT
[2]
  activity: ~10 fold
